Measured values reported in the supplement of paper PMC9876800.

Test system: peptide library, one residue held at a place counted from the S/T acceptor
Experiment: relative phosphorylation of the sub-library (ratio to the mean residue at this position); higher = residue favoured
Details: human
How it was run: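 Relative sub-library phosphorylation is the ratio of each sub-library's signal to the mean residue at that position. The signal came from phosphorimaging of spots on streptavidin membranes, quantified by densitometry, after purified recombinant kinases reacted with biotinylated degenerate peptide sub-libraries in 384-well plates. Reactions held 50 μM peptide and 50 μM ATP spiked with γ-32P-ATP for 90 min under kinase-specific conditions.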

PRKX, construct: Full length, sequence (P51817 whole entry, looked up): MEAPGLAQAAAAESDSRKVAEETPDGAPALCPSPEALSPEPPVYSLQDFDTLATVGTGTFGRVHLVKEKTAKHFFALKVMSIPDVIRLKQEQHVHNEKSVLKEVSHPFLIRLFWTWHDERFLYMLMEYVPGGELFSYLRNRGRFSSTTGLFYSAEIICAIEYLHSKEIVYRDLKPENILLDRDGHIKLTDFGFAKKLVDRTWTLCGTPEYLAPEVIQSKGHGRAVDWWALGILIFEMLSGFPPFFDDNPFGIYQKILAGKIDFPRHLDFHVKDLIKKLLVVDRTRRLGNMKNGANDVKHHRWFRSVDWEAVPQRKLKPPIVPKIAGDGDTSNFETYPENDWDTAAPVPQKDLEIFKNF

PRKX, construct: Full length (from UniProt P51817)
relative phosphorylation
Details	at +1	at +2	at +3	at +4	at -1	at -2	at -3	at -4	at -5
A fixed	0.71	1.3	0.688	0.785	0.651	0.289	0.299	1.03	1.08
D fixed	0.862	2.53	1.6	2.09	0.698	0.224	0.2	0.876	1.11
E fixed	0.814	1.04	1.32	1.61	0.424	0.2	0.208	0.881	0.985
F fixed	0.849	0.505	0.697	0.599	0.425	0.212	0.128	0.515	0.596
G fixed	1.06	1.27	1.49	1.08	1.29	0.382	0.477	1.1	1.4
H fixed	0.919	1.16	1.31	1.04	1.18	0.662	1.14	1.09	1.26
I fixed	0.872	0.411	0.344	0.522	0.184	0.143	0.111	0.357	0.528
K fixed	1.55	0.713	1.38	1.12	2.79	4.76	3.29	2.53	2.14
L fixed	0.859	0.47	0.627	0.572	0.399	0.185	0.112	0.451	0.507
M fixed	0.884	0.504	0.462	0.643	0.534	0.176	0.134	0.575	0.651
N fixed	1.41	1.47	1.52	1.48	1.7	0.343	0.383	0.914	1.11
P fixed	0.584	1.84	1.24	1.3	1.55	0.395	0.797	1.22	0.811
Q fixed	1.47	1.24	1.36	1.23	1.41	0.483	0.444	1.18	0.807
R fixed	1.57	0.881	1.13	1.06	2.37	7.88	8.71	2.58	2.12
V fixed	0.801	0.498	0.413	0.623	0.217	0.143	0.112	0.412	0.454
W fixed	1.02	0.624	0.752	0.637	0.457	0.295	0.246	0.686	0.731
Y fixed	0.766	0.548	0.669	0.608	0.711	0.234	0.204	0.613	0.71
pThr fixed	1.32	1.05	1.35	2.62	0.462	0.431	0.421	0.921	1.04
pTyr fixed	1.54	1.38	1.3	1.55	0.999	0.374	0.345	0.864	0.882

MTOR, construct: aa1362-end (from UniProt P42345)
relative phosphorylation
Details	at +1	at +2	at +3	at +4	at -1	at -2	at -3	at -4	at -5
A fixed	0.644	0.815	1.08	0.948	0.839	1.52	0.751	0.924	0.888
D fixed	0.338	1.2	1.11	0.821	0.489	0.686	0.747	1.1	1.21
E fixed	0.342	0.889	1.07	0.829	0.709	0.643	0.983	1.09	1.04
F fixed	1.72	0.686	0.647	1.01	1.01	1.09	1.09	1.08	1
G fixed	0.613	0.903	1.43	1.21	2.83	1.58	1.01	0.942	1.07
H fixed	0.556	1.24	1.17	1.28	1.18	1.05	1.14	1.21	1.15
I fixed	0.707	0.686	0.601	0.706	0.433	0.88	0.778	0.747	0.593
K fixed	0.487	1.58	1.35	1.36	0.986	0.854	0.924	0.879	1.1
L fixed	1.43	1.16	0.756	0.695	0.698	0.682	0.938	0.956	0.724
M fixed	1.02	0.673	0.694	0.868	1.13	0.705	1.05	1.07	0.807
N fixed	0.452	1.12	1.33	0.968	1.36	0.954	0.986	0.939	0.923
P fixed	2.13	1.31	0.993	0.872	0.786	1.56	1.09	0.955	1.47
Q fixed	0.561	0.83	0.942	0.92	1.15	0.838	0.949	0.953	0.862
R fixed	0.506	1.7	1.2	1.2	1.15	0.973	1.1	1.02	1.04
V fixed	0.816	0.728	0.675	0.7	0.482	0.985	0.795	0.708	0.745
W fixed	1.99	0.643	0.99	1.41	0.721	1.05	1.2	1.3	1.36
Y fixed	2.68	0.836	0.972	1.2	1.05	0.956	1.47	1.13	1.01
pThr fixed	0.637	1.71	1.67	1.27	0.546	1.01	1.15	1.34	1.16
pTyr fixed	1.06	0.721	1	0.941	0.841	1.27	1.66	1.37	1.21
